According to US20240360218A1 (KYMAB, published 2024):

B1: 1D05 (antibody, V domains shown)
VH: EVQLVESGGGLVQPGRSLRLSCAASGFTFDDYAMHWVRQVPGKGLEWVSGISWIRTGIGYADSVKGRFTIFRDNAKNSLYLQMNSLRAEDTALYYCAKDMKGSGTYGGWFDTWGQGTLVTVSS
VL: not shown
notes: kappa light chain; also called clone 1D05; anti-PD-L1 antibody 1D05
B2: 413G05 (antibody, human IgG1, V domains shown)
VH: QVQLVESGGGLVKPGGSLRLSCAASGFTFSDYYMSWIRQVPGKGLEWVSYISTSGSTIYYADSVKGRFTISRDNAKNSLYLQMNSLRAEDAAVYHCARGITGTNFYHYGLGVWGQGTTVTVSS
VL: DIQMTQSPSSVSASVGDRVTITCRASQGINSWLAWYQQKPGKAPKLLIYAASTLQSGVPSRFSGSGSGADFTLTISSLQPEDFATYYCQQVNSFPLTFGGGTKVEIK
B3: 84G09 (antibody, human IgG1, V domains shown)
VH: EVQLVESGGGLVQPGRSLRLSCAASGFTFDDYAMHWVRQTPGKGLEWVSGISWKSNIIGYADSVKGRFTISRDNAKNSLYLQMNSLRAEDTALYYCARDITGSGSYGWFDPWGQGTLVTVSS
VL: DIQMTQSPSSLSASVGDRVTITCRASQSISSYLNWYQQKPGKAPKPLIYVASSLQSGVPSSFSGSGSGTDFTLTISSLQPEDFATYYCQQSYSNPITFGQGTRLEIK
notes: kappa light chain; also called clone 84G09

Legend:
PD-L1-Fc (R&D Systems) = target: T1, PD-L1-Fc (R&D Systems) (UniProt Q9NZQ7 19-239); assay: plate ELISA/DELFIA (Example 5d): biotinylated antibody on plate-bound PD-L1-Fc, streptavidin-Eu, TRF at 615 nm
T1 construct: not shown: Fc part of the bought fusion protein, not described
T1 sequence (Q9NZQ7 19-239 limits assumed): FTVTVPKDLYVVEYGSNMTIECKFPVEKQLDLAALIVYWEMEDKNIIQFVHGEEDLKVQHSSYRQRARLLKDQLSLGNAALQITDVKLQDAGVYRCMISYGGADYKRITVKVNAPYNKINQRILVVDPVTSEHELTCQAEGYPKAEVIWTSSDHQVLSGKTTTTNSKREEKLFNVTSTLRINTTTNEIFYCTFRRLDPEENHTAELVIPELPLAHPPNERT
Description: Excess protein was removed by washing with PBS-Tween (0.1% v/v) and the wells were blocked with 250 μL/well Pierce Protein Free Blocking Buffer (Thermo, 37572) for 1 hour, after which plates were washed as described previously. […] 100 μL each antibody dilution was added to the plates in duplicate and incubated for 1 hour at room temperature, before washing as stated above. Antibody binding was detected using streptavidin labelled Europium (Perkin Elmer) diluted 1/1000 in DELFIA Assay buffer (Perkin Elmer). Plates were washed with TBS (Tris buffered saline)-Tween (0.1% v/v) and 50 μL/well of DELFIA Enhancement solution (Perkin Elmer) was added to the plate. Time-resolved fluorescence was measured at 615 nm on an Envision plate reader (PerkinElmer).

[1] = target: T2, hPD-L1-his (in-house generated recombinant human PD-L1, his-tagged) (human, UniProt Q9NZQ7 19-238, limits assumed, biotinylated in the ELISA and AlphaScreen assays (site not stated)); assay: SPR (ProteOn), anti-human Fc capture, 25 C
T2 construct: also called biotinylated hPD-L1-his; biotinylated His-PD-L1
T2 sequence (Q9NZQ7 19-238 limits assumed): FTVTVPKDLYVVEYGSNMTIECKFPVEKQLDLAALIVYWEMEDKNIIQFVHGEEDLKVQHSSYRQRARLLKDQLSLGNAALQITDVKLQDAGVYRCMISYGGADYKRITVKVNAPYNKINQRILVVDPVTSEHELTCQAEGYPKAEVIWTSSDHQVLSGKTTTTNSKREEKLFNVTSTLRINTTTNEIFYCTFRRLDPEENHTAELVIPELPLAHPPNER
Description: Label-free surface plasmon resonance (SPR) analysis was carried out on the ProteOn XPR36 (BioRad) array SPR machine. […] The data was analysed using the 1:1 model inherent to the ProteOn XPR36 analysis software.
SPR analysis was performed as per Example 4 with the following amendments: analysis was performed at 37° C. as well as 25° C. to increase the stringency of the assay.

Row | Binder | EC50 (read off the curve) (PD-L1-Fc (R&D Systems)) [pM] | koff [1] [s⁻¹]
1 | B1 | ~400 | 
2 | B2 |  | 6.23e-05
3 | B3 | ~400 | 
